Source: US20170192014A1 (PDL BIOPHARMA, published 2017)
Ends that are not written are not given here. * marks the point of attachment. Biotin = O=C1N[C@H]2[C@H](CS[C@H]2CCCCC(=O)*)N1

Assays:
[1] = target: T1, full length recombinant cytokeratin 18 protein (rCK18) (human, UniProt P05783 1-430); assay: Western blot
T1 construct: The exact recombinant construct, including any tags, is not described; also called recombinant full length CK18 protein; full-length (untreated) CK18
T1 sequence: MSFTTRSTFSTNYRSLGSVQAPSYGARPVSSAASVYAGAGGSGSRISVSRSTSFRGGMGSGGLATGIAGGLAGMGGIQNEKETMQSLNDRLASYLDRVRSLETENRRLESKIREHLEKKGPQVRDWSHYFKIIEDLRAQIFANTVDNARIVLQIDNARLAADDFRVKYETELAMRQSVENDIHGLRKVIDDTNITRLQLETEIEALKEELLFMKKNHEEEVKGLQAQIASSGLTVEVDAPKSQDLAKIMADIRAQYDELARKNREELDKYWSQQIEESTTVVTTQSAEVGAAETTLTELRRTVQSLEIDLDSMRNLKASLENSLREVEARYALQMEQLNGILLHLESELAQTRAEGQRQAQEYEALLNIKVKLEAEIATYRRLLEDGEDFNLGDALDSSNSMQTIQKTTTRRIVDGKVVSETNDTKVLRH
Method: (§1) FIG. 4 is a photographic reproduction of a Western Blot Analysis using the mAb 3C2 (Lane 1, marker proteins; Lane 2, blank; Lane 3, 1 μg recombinant full length CK18 protein (rCK18); Lane 4, 12 μL of SK-BR3 apoptotic cell supernatant; Lane 5, 12 μL of SK-BR3 cell supernatant). Proteins were run in a 14% Tris/Glycine gel. The concentrations for the test material were 1 μg of rCK18 and 12 μL of SK-BR-3 apoptotic supernatant and SK-BR-3 Cell Lysate. The proteins were run at 150 V constant until the dye front reached the end of the gel. The proteins were then transferred to nitrocellulose. The nitrocellulose was blocked and probed with the 3C2 mAb at 1 μg/mL for 60 minutes. The membrane was washed three times and probed with a goat anti-mouse IgG ALK for 30 minutes. The membrane was washed three times and developed with using a WesternBreeze® kit from Invitrogen™ (Cat # WB7104).

[2] = target: T2, full length CK18 from a cell extract of SK-BR-3 cells (human, UniProt P05783 1-430); assay: Western blot
T2 construct: Endogenous CK18 of the human breast cancer cell line SK-BR-3, seen on a Western blot; also called SK-BR3 cell supernatant (lane 5)
T2 sequence: T1 sequence
Method: as §1

[3] = target: T3, human CK18 protein fragment M1-D238 from apoptotic SK-BR3 cells (human, UniProt P05783 1-238); assay: Western blot
T3 construct: Endogenous fragment in the supernatant or lysate of SK-BR-3 cells induced to become apoptotic; also called fragment B; caspase-cleaved CK18 fragment
T3 sequence: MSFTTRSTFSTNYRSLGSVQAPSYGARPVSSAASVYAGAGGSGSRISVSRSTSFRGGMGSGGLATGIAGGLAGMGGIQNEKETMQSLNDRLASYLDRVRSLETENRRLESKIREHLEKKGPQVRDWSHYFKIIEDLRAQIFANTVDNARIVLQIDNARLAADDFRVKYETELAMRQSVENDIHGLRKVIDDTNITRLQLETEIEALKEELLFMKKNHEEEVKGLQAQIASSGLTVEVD
Method: as §1

[4] = target: T4, biotin conjugated CK18 peptide ^229ASSGLTVEVD (A229-D238) (human); assay: immunoassay on biotin peptides on NeutrAvidin-coated 96-well plate
T4 construct: also called peptide P1
T4 peptide: Biotin-ASSGLTVEVD
Method: (§2) The specificity of monoclonal antibody 3C2 was also assessed in an immunoassay against the peptides ²²⁹[…] (SEQ ID NO:1), ²²⁹[…] (SEQ ID NO:12) and ³⁸⁸[…] (SEQ ID NO:13) (each conjugated with biotin at their amino-terminus), which were added to a 96-well microplate coated with NeutrAvidin® by Invitrogen™. Human cytokeratin 18 protein fragment A239-D397 was also produced by the action of caspase 3 during cellular apoptosis and ends in the sequence ³⁹⁴DALD (SEQ ID NO:9). These peptides were incubated with mAb 3C2, M30 antibody (Enzo Life Sciences®, ALX-804-590) or other unrelated mAbs.

[5] = target: T5, biotin conjugated CK18 peptide ^229ASSGLTVEV (A229-V237) (human); assay: as above
T5 peptide: Biotin-ASSGLTVEV
Method: as §2

[6] = target: T6, biotin conjugated CK18 peptide ^388EDFNLGDALD (human); assay: as above
T6 peptide: Biotin-EDFNLGDALD
Method: as §2

[7] = target: T7, biotin conjugated CK18 peptide ^239APKSQDLAKI (A239-I248) (human, also: biotin conjugated); assay: ECL assay, hybridoma supernatant on biotin peptide on streptavidin beads
T7 peptide: APKSQDLAKI
Text: (§3) Caspases 3 and 6 generated three CK18 protein fragments having the sequences M1-D238 (SEQ ID NO:4), A239-D397 and 5398-H430. A monoclonal antibody specific for the carboxy terminus of human caspase-cleaved cytokeratin CK18 protein fragment having amino acids M1-D238 (SEQ ID NO:4) was generated by immunizing mice with a short peptide sequence of ²²⁹[…] (SEQ ID NO:1) (designated as peptide P1 for the Examples). Mouse sera were screened for a positive response to peptide P1. Splenocytes from mice with a positive response were fused with myeloma cells and cell culture fluid from the resulting hybridomas screened against peptide P1. Supernatant from hybridoma cells producing antibody with a positive response to peptide P1 were further screened by an electrochemiluminescence (ECL) assay against biotin conjugated peptides ²³⁹[…] (SEQ ID NO:10), ²⁴⁰[…] (SEQ ID NO:11), ²²⁹[…] (SEQ ID NO:1) and ²²⁹[…] (SEQ ID NO:12), which were each bound to streptavidin coated paramagnetic beads. Peptides ²²⁹[…] (SEQ ID NO:1) and ²²⁹[…] (SEQ ID NO:12) represent the amino acid sequences A229-D238 and A229-V237 of cytokeratin 18 protein while peptides ²³⁹[…] (SEQ ID NO:10) and ²⁴⁰[…] (SEQ ID NO:11) represent the amino acid sequences A239-1248 and K240-1248 of cytokeratin 18.

[8] = target: T8, biotin conjugated CK18 peptide ^240PKSQDLAKI (human, also: biotin conjugated); assay: as above
T8 peptide: PKSQDLAKI
Text: as §3

[9] = target: T9, recombinant human CK18 protein fragment B (rCK18fB) (human, UniProt P05783 1-238); assay: sandwich ECL assay, capture biotin-3C2 on streptavidin beads, detector TAG-C-04, in normal human serum
T9 construct: also called recombinant CK-18 fragment B protein
T9 sequence: T3 sequence
Method: A recombinant human CK18 protein fragment B (rCK18fB) was prepared using standard procedures. An immunoassay consisted of incubating 50 μL rCK18fB (0, 206, 617, 1852, 5557, 16667, 50,000 and 100,000 U/L) spiked into normal human serum with 50 μL of reaction mix consisting of biotinylated mAb 3C2/streptavidin coated paramagnetic beads and anti-CK18 TAG labeled antibody C-04 for 60 minutes at room temperature with shaking. The bead complex was washed twice, suspended in buffer and read on an ECL analyzer. The results shown in FIG. 6, a representative standard curve, indicate rCK18fB is detectable over a range of 0-100,000 U/L (1 U/L=1000 pg=0.037 pM).

- binding result [2]: no binding
- binding result [3]: binds
- binding result [4]: binds
- binding result [5]: no binding
- binding result [6]: no binding
- binding result [7]: no binding
- binding result [8]: no binding
- binding result [9]: binds
B1: monoclonal antibody 3C2 (antibody, V domains shown)
VH: DVQLVESGGGLVQPGGSRKLSCAASGFTFSSFGMHWVRQAPEKGLEWVAYINGGSTIIYYADTVKGRFTVSRDNPKNTLFLQMTSLRSDDTAMYFCVRRTPTAAGGAMDYWGQGTSVTVSS
VL: NIMVTQSPSSLAVSAGEKVTMTCKSSQSLFYSSNQKNYLAWFQQKPGQSPKLLIYWASTRESGVADRFTGSGYGTDFTLTISSVQAEDLAVYYCQQYLSSWTFGGGTKVEIK
notes: Mouse hybridoma monoclonal antibody, detected with goat anti-mouse IgG; also called mAb 3C2; anti-VEVD mAb
- binding result [1]: no binding (tested: 3C2 mAb at 1 µg/mL; 1 µg of rCK18)
